The values below come from patent US20140357838A1, “N-Terminally Modified Insulin Derivatives” (Novo Nordisk A/S, priority 2011, published 2014).

Starred links: 1 amine or outer side, 2 acyl side, 3 side chain; linkers in the order of their positions; H or OH if unused. Positions of bridges follow the written chain, without caps; N, C: chain ends. Groups on a side chain read outwards from the residue. Chains are numbered I, II in the order given. No end group written: not given here. *: point of attachment. Phe(Nα-CONH2) = NC(=O)N[C@@H](Cc1ccccc1)C(=O)*; C20 diacid = O=C(O)CCCCCCCCCCCCCCCCCCC(=O)*; C18 diacid = O=C(O)CCCCCCCCCCCCCCCCC(=O)*; NMe2Phe = CN(C)[C@@H](Cc1ccccc1)C(=O)*; γGlu = O=C(O)[C@H](CCC(=O)[*:2])N[*:1]; Hydantoyl = NC(=O)NCC(=O)*; AEEA = NCCOCCOCC(=O)O; Me2Gly = CN(C)CC(=O)*

In data set [1] the target is T1, human insulin receptor (Homo sapiens, UniProt P06213). Put plainly: Insulin receptor affinity, SPA antibody capture assay (0% HSA). The data set is classed as binding. The note with it: relative to the affinity of human insulin. As for the experimental part:
(§1) SPA-PVT antibody-binding beads, anti-mouse reagent (Amersham Bio-sciences, Cat No. PRNQ0017) are mixed with 25 ml of binding buffer (100 mM HEPES pH 7.8; 100 mM sodium chloride, 10 mM MgSO4, 0.025% Tween-20). […] A total of 100 μl reagent mix is then added to each well in the Packard Optiplate and a dilution series of the N-terminally modified insulin is made in the Optiplate from appropriate samples. The samples are then incubated for 16 hours while gently shaken. The phases are the then separated by centrifugation for 1 min and the plates counted in a Topcounter.

The target in data set [2] is T1, human insulin receptor. Put plainly: Insulin receptor affinity, SPA assay with […] HSA in binding buffer. The note with it: relative to the affinity of human insulin. As to the method: as §1
Data set [3] can be described thus: Hydrophobicity by isocratic reverse phase HPLC. It counts as physicochemical. The conditions noted are these: k'rel, isocratic RP-HPLC, pH 7.3, human insulin = 1. As for the experimental part:
The hydrophobicity of an N-terminally modified insulin is found by reverse phase HPLC run under isocratic conditions. […] The hydrophobicity, k′rel, is calculated as: k′relderiv=((tderiv−t0)(tref−t0)*k′relref. Using HI as reference: k′relref=k′relHI=1. The void time of the HPLC system, t0, is determined by injecting 5 μl of 0.1 mM NaNO3. Running conditions:
Column: Lichrosorb RP-C18, 5 μm, 4×250 mm
Buffer A: 0.1 M natrium phosphate pH 7.3, 10 vol % CH3CN
After running an initial gradient, the isocratic level for running the derivative and reference (for example HI) is chosen, and the elution times of the derivative and reference under isocratic conditions are used in the above equation to calculate k′relderiv.

For the next data set, the system named is duodenum lumen enzymes. Briefly: Degradation of insulin analogs using duodenum lumen enzymes. The data set is classed as in vitro ADME. The note with it: rat duodenum lumen enzymes, 100 mM Hepes pH 7.4, 37° C.; degradation half time divided by that of reference insulin. As to the method:
Degradation of insulin analogs using duodenum lumen enzymes (prepared by filtration of duodenum lumen content) from SPD rats. The assay is performed by a robot in a 96 well plate (2 ml) with 16 wells available for insulin analogs and standards. Insulin analogs ˜15 μM are incubated with duodenum enzymes in 100 mM Hepes, pH=7.4 at 37° C., samples are taken after 1, 15, 30, 60, 120 and 240 min and reaction quenched by addition of TFA. Intact insulin analogs at each point are determined by RP-HPLC. […] The amount of enzymes added for the degradation is such that the half time for degradation of the reference insulin is between 60 min and 180 min.

Data set [4] in a line: Thioflavin T (ThT) fibrillation assay. The note with it: same experiment as prior art derivatives, 37° C., 960 rpm, pH 7.4, mean ± SD. It counts as physicochemical. An excerpt:
This has traditionally been measured by visual inspection of the sample. However, that kind of measurement is very subjective and depending on the observer. Therefore the application of a small molecule indicator probe is much preferred. […] The time course for fibril formation can be described by a sigmoidal curve with the following expression (Nielsen at al. Biochemistry 40, 6036-6046, 2001):
Here, F is the ThT fluorescence at the time t. The constant t0 is the time needed to reach 50% of maximum fluorescence. The two important parameters describing fibril formation are the lag-time calculated by t0-2[…] and the apparent rate constant kapp=1/{tilde over (□)}.
Samples were prepared freshly before each assay. Each analog was dissolved in 2 mM sodium phosphate, pH=7.4. Thioflavin T was added to the samples from a stock solution in water to a final concentration of 1 μM. Sample aliquots of 200 μl were placed in a 96 well microtiter plate (Packard Optiplate™-96, white polystyrene). Usually four replica of each sample (corresponding to one test condition) were placed in one column of wells. The plate was sealed with Scotch Pad (Qiagen).
Incubation at given temperature, shaking and measurements of the ThT fluorescence emission were done in either a Fluoroskan Ascent FL or Varioskan fluorescence plate reader (thermo Labsystems). The temperature was adjusted to 37° C. […] Fluorescence measurements were done using excitation through a 444 nm filter and measurement of emission through a 485 nm filter.
Each run was initiated by incubating the plate at the assay temperature for 10 min. The plate was measured every 20 minutes for typically 45 hours. Between each measurement, the plate was shaken and heated as described above.
The measurement data points were saved in Microsoft Excel format for further processing and curve drawing and fitting was performed using Graph Pad Prism. […] The data points are typically a mean of four samples. Only data obtained in the same experiment (i.e. samples on the same plate) are presented in the same graph ensuring a relative measure of fibrillation between the individual samples of one assay rather then comparison between different assays. The data set may be fitted to Eq. (1). However since the full sigmoidal curves are not usually achieved during the measurement time, the degree of fibrillation is expressed as ThT fluorescence at various time points calculated as the mean of the four samples and shown with the standard deviation

The nature of data set [5]: Chemical stability of insulin derivatives in 2 mM phosphate (SEC-HPLC and RP-HPLC). The conditions noted are these: 4 weeks 37° C. minus 5° C. start sample; for HMWP Formation (%) (4 weeks 37° C.- 0 weeks 5° C.): pH 7.5, SEC-HPLC. The data set is classed as physicochemical. As to the method:
Chemical stability of an insulin derivative is assessed after incubating insulin derivative in 2 mM phosphate, pH=7.5 at 37° C. for up to 8 weeks. Formation of high molecular weight products (HMWP) is determined by SEC HPLC analysis after 0, 2, 4 and optionally 8 weeks. The results of the SEC method are given as a difference between HMWP formation at 37° C. and 5° C. start sample as a percentage of total absorbance at 215 nm. Chemical degradation products are determined by RP HPLC analysis after 0, 2, 4 and optionally 8 weeks. The results of the RP method are given as a difference between chemical degradation observed at 37° C. and 5° C. start sample as a percentage of total absorbance at 215 nm.
• Solvent: 500 mM NaCl, 10 mM NaH2PO4, 5 mM H3PO4, 50% (v/v) 2-propanol • Flow: 0.5 ml/min • Run time: 30 min • UV Detection: 215 nm • Column: Insulin HMWP column from Waters 7.8×300 mm • Temperature: 50° C.
• Solvent A: 0.09M phosphate buffer pH 3.6 (di-ammoniumhydrogenphosphate), 10% MeCN (v/v) • Solvent B: 80% MeCN (v/v %) • Flow: 0.3 ml/min • Runtime: 33 min • UV Detection: 215 nm • Column: Waters Acquity BEH130 C18 Column 1.7 μm, 150×2.1 mm • Temperature: 50° C. • Gradient: […]
Background: SEC sorts molecules by how far they enter the pores of the column.

The subject of the next data set is Primary rat adipocytes. Put plainly: Lipogenesis in rat adipocytes. It counts as cell-based. The conditions noted are these: relative potency vs human insulin. The text has this: As a measure of in vitro potency of the insulins of the invention, lipogenesis can be used.
The labelled glucose is converted into extractable lipids in a dose dependent way, resulting in full dose response curves.

T1 sequence (P06213 28-746 isoform P06213-2 limits assumed): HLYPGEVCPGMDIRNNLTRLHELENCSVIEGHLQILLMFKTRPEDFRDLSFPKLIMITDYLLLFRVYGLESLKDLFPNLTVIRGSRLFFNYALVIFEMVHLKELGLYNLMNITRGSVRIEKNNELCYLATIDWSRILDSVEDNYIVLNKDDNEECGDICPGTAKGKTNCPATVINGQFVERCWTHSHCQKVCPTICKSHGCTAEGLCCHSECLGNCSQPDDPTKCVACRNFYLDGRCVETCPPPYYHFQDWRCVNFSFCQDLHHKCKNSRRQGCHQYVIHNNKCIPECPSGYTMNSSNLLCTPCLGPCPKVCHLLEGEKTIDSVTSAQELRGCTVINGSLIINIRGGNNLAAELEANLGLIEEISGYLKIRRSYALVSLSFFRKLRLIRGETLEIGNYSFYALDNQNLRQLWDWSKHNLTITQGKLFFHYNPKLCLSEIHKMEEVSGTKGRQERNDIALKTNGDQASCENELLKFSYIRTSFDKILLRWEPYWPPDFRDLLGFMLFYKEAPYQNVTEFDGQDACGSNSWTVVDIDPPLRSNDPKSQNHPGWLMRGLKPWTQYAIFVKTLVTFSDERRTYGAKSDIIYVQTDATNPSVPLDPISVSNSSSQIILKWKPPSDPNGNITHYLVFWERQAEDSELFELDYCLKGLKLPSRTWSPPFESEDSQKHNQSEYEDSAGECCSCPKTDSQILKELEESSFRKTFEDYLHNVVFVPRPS
T1 sequence (P06213 763-1382 partner limits assumed): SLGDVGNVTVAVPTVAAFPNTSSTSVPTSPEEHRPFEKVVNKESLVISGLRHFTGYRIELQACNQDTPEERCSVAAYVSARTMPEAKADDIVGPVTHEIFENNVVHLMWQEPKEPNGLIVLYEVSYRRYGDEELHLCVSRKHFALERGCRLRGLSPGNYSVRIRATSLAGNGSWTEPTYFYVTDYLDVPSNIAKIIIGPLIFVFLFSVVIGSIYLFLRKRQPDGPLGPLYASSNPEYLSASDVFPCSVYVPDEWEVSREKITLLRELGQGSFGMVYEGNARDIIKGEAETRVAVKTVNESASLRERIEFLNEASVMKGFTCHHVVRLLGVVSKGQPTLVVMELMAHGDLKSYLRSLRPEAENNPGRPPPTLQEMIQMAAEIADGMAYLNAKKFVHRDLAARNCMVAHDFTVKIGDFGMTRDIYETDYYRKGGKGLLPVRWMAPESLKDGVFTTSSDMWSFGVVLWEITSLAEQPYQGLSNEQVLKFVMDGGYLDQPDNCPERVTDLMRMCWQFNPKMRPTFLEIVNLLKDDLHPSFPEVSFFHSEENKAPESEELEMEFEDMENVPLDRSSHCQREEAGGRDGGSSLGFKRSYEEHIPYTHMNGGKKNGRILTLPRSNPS

With “I: NMe2Phe-VCQHLCGSHLVEALHLVCGERGFHYTPK([AEEA-AEEA-γGlu-C20 diacid]) / II: Me2Gly-IVEQCCTSCCSLEQLENYCN (disulfide I:2-II:9, I:6-II:6, I:18-II:19, II:5-II:10) [Example 28, A1(N^α,N^α-Dimethyl), A10C, A14E, B1(N^α,N^α-dimethyl), B3C, B16H, B25H, B29K(N^εeicosanedioyl-gGlu-2×OEG), desB30 Human Insulin]”, the “Relative IR-A affinity (@ 0% HSA) (%)” value at human insulin receptor [1] was 0.1%. In addition, at human insulin receptor [2], the “Relative IR-A affinity (@ […] HSA) (%)e” value came to 0.01%. Moreover, in data set [3], the “Hydrophobicity rel. to human insulin” value was 0.298. In addition, the “Stability towards duodenum lumen enzymes (fold relative to A14E, B25H, desB30 human insulin)” value in the data set with duodenum lumen enzymes was 1.6 fold.

As to “I: NMe2Phe-VCQHLCGSHLVEALYLVCGERGFHYPK([AEEA-AEEA-γGlu-C18 diacid]) / II: Me2Gly-IVEQCCTSCCSLEQLENYCN (disulfide I:2-II:9, I:6-II:6, I:18-II:19, II:5-II:10) [Example 11, A1(N^α,N^α-Dimethyl), A10C, A14E, B1(N^α,N^α-dimethyl), B3C, B25H, desB27, B29K(N^εoctadecanedioyl-gGlu-2×OEG), desB30 Human Insulin]”, the “Relative IR-A affinity (@ 0% HSA) (%)” value on human insulin receptor [1] is 0.6%. The “Relative IR-A affinity (@ […] HSA) (%)e” value at human insulin receptor [2] came to 0.04%. In data set [3], the “Hydrophobicity rel. to human insulin” value came out at 0.095. Besides, in data set [4], the “ThT 0 h” value was 31 ± 0.4, the “ThT 5 h” value was found to be 23 ± 0.4, the “ThT 10 h” value was found to be 23 ± 0.6 and the “ThT 30 h” value is reported as 21 ± 0.2. In data set [4], the “ThT 40 h” value came to 21 ± 0.3. For the same substance, the “Chemical degradation (%) (4 weeks 37° C.- 0 weeks 5° C.)” value in data set [5] (pH 7.5, RP-HPLC) is 3.2%. Moreover, the “HMWP Formation (%) (4 weeks 37° C.- 0 weeks 5° C.)” value in data set [5] is −0.2%.

For “I: NMe2Phe-VCQHLCGSHLVEALYLVCGERGFHYTPK([AEEA-AEEA-γGlu-C20 diacid]) / II: Me2Gly-IVEQCCTSCCSLEQLENYCN (disulfide I:2-II:9, I:6-II:6, I:18-II:19, II:5-II:10) [Example 2, A1(N^α,N^α-Dimethyl), A10C, A14E, B1(N^α,N^α-dimethyl), B3C, B25H, B29K(N^εeicosanedioyl-gGlu-2×OEG), desB30 Human Insulin]”, in the data set with Primary rat adipocytes, the “Lipogenesis in rat adipocytres (@ 0.1% HSA) rel. to human insulin (%)” value amounted to 0.025%. For the same substance, the “Hydrophobicity rel. to human insulin” value in data set [3] was found to be 0.38. Also, in data set [4], the “ThT 0 h” value amounted to 35 ± 0.9, the “ThT 5 h” value came out at 22 ± 0.4, the “ThT 10 h” value came to 22 ± 0.3 and the “ThT 30 h” value amounted to 20 ± 0.3. The “ThT 40 h” value in data set [4] turned out to be 19 ± 0.3. Further, in data set [5], the “HMWP Formation (%) (4 weeks 37° C.- 0 weeks 5° C.)” value worked out at 0.0%.

Turning to “I: {Phe(Nα-CONH2)}-VCQHLCGSHLVEALYLVCGERGFFYPK([AEEA-AEEA-γGlu-C18 diacid]) / II: Hydantoyl-IVEQCCTSCCSLEQLENYCN (disulfide I:2-II:9, I:6-II:6, I:18-II:19, II:5-II:10) [Example 33, A1(N^α-Carbamoyl), A10C, A14E, B1(N^α-carbamoyl), B3C, desB27, B29K(N^εoctadecanedioyl-gGlu-2×OEG), desB30 Human Insulin]”, on human insulin receptor [1], the “Relative IR-A affinity (@ 0% HSA) (%)” value was determined as 0.6%. For the same substance, the “Stability towards duodenum lumen enzymes (fold relative to A14E, B25H, desB30 human insulin)” value in the data set on duodenum lumen enzymes is listed as 1.6 fold.

Take “I: {Phe(Nα-CONH2)}-VCQHLCGSHLVEALYLVCGERGFHYPK([AEEA-AEEA-γGlu-C20 diacid]) / II: Hydantoyl-IVEQCCTSCCSLEQLENYCN (disulfide I:2-II:9, I:6-II:6, I:18-II:19, II:5-II:10) [Example 46, A1(N^α-Carbamoyl), A10C, A14E, B1(N^α-carbamoyl), B3C, B25H, desB27, B29K(N^εeicosanedioyl-gGlu-2×OEG), desB30 Human Insulin]”: on human insulin receptor [1], the “Relative IR-A affinity (@ 0% HSA) (%)” value was determined as 0.1%. In addition, the “Relative IR-A affinity (@ […] HSA) (%)e” value on human insulin receptor [2] amounted to 0.01%. In addition, the “Hydrophobicity rel. to human insulin” value in data set [3] came out at 0.132. For the same substance, the “Stability towards duodenum lumen enzymes (fold relative to A14E, B25H, desB30 human insulin)” value in the data set with duodenum lumen enzymes amounted to 1.2 fold.

Regarding “I: {Phe(Nα-CONH2)}-VCQHLCGSHLVEALYLVCGERGFHYPK([γGlu-C18 diacid]) / II: Hydantoyl-IVEQCCTSCCSLEQLENYCN (disulfide I:2-II:9, I:6-II:6, I:18-II:19, II:5-II:10) [Example 34, A1(N^αCarbamoyl), A10C, A14E, B1(N^αcarbamoyl), B3C, B25H, desB27, B29K(N^εoctadecanedioyl-gGlu), desB30 Human Insulin]”, the “Relative IR-A affinity (@ 0% HSA) (%)” value on human insulin receptor [1] turned out to be 0.1%. Besides, the “Relative IR-A affinity (@ […] HSA) (%)e” value on human insulin receptor [2] was determined as 0.00%. The “Stability towards duodenum lumen enzymes (fold relative to A14E, B25H, desB30 human insulin)” value in the data set on duodenum lumen enzymes was 1.8 fold. Also, in data set [4], the “ThT 0 h” value stood at 20 ± 0.1, the “ThT 5 h” value was found to be 13 ± 0.7, the “ThT 10 h” value is on record as 13 ± 0.8 and the “ThT 30 h” value is given as 13 ± 0.4. In data set [4], the “ThT 40 h” value was determined as 13 ± 0.3.
